# Data from the supplement of paper PMC11780869.
# Tested on: Bacillus subtilis
# Assay: cleaved RNA product abundance (RNA/gDNA barcode ratio) relative to median wild-type variant (ratio to wild type); higher = more accumulation of the downstream cleavage product
# Settings: experiment (reporter, strain, medium): exp 8a: truncated aprE reporter, strain BJT201 with 2% xylose (RNase J1 expressed); cleavage site: glnRA (positions -5 to +31 mutated)
# Procedure, shortened: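 Reporter mRNAs (truncated aprE or tetM) carrying barcoded, mutagenized RNase Y cleavage-site windows were made from oligos with a 9% error rate and integrated into the B. subtilis chromosome. Cultures grew in LB at 37°C from OD600 0.0003 to 0.3. Cleaved RNA was gel-selected, reverse transcribed and barcode-sequenced alongside genomic DNA barcodes, with UMI collapsing. Cleaved product abundance is the RNA:gDNA barcode ratio per variant, scaled to the median wild-type variant.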
row,Sequence,cleaved RNA product abundance
1,CGACATGTCCCGCTTCTTTCATTAATCCGTTAGCTACTGTTTTGCTATATACATTTATCTTTTAAGAGGAGGAAT,0.798
2,CGACATGTCCCGCTTCTTTCATTAATCCGTTAGCTACTGTTTTGCTATATATATTTACCTTTTAAGAGGAGGAAT,0.617
3,CGACATGTCCCGCTTCTTTCATTAATCCGTTAGCTACTGTTTTGCTATATGCATTTACCTTTTAAGAGGAGGAAT,0.368
4,CGACATGTCCCGCTTCTTTCATTAATCCGTTAGCTACTGTTTTGCTATATTCATTTACATTTTAAGAGGAGGAAT,0.64
5,CGACATGTCCCGCTTCTTTCATTAATCCGTTAGCTATTGTTTTGCTATATACATTTACCTTTTAAGAGGAGGAAT,0.432
6,CGACATGTCCCGCTTCTTTCATTAATCCGTTAGCTGCTGTTTTGCTATATACATTTACCTTTTAAGAGGAGGAAT,0.658
7,CGACATGTCCCGCTTCTTTCATTAATCCGTTAGGAAATGTTTTGCTATATACATTTACCTTTTAAGAGGAGGAAT,0.361
8,CGACATGTCCCGCTTCTTTCATTAATCCGTTAGGAACAGTTTTGCTATATACATTTACCTTTTAAGAGGAGGAAT,0.434
9,CGACATGTCCCGCTTCTTTCATTAATCCGTTAGGAACTATTTTGCTATATACATTTACCTTTTAAGAGGAGGAAT,0.437
10,CGACATGTCCCGCTTCTTTCATTAATCCGTTAGGAACTGATTTGCTATATACATTTACCTTTTAAGAGGAGGAAT,0.415
11,CGACATGTCCCGCTTCTTTCATTAATCCGTTAGGAACTGTCTTGCTATATACATTTACCTTTTAAGAGGAGGAAT,0.138
12,CGACATGTCCCGCTTCTTTCATTAATCCGTTAGGAACTGTTTAGCTATATACATTTACCTTTTAAGAGGAGGAAT,0.327
13,CGACATGTCCCGCTTCTTTCATTAATCCGTTAGGAACTGTTTTGCAATATACATTTACCTTTTAAGAGGAGGAAT,0.342
14,CGACATGTCCCGCTTCTTTCATTAATCCGTTAGGAACTGTTTTGCGATATACATTTACCTTTTAAGAGGAGGAAT,0.312
15,CGACATGTCCCGCTTCTTTCATTAATCCGTTAGGAACTGTTTTGCTATAAACATTTACCTTTTAAGAGGAGGAAT,0.289
16,CGACATGTCCCGCTTCTTTCATTAATCCGTTAGGAACTGTTTTGCTATACACATTTACCTTTTAAGAGGAGGAAT,0.245
17,CGACATGTCCCGCTTCTTTCATTAATCCGTTAGGAACTGTTTTGCTATATACATTTACCTTTTAAGAGGAGGAAT,0.331
18,CGACATGTCCCGCTTCTTTCATTAATCCGTTAGGAACTGTTTTGCTATATACATTTACTTTTTAAGAGGAGGAAT,0.247
19,CGACATGTCCCGCTTCTTTCATTAATCCGTTAGGAACTGTTTTGCTATATACATTTGCCTTTTAAGAGGAGGAAT,0.376
20,CGACATGTCCCGCTTCTTTCATTAATCCGTTAGGAACTGTTTTGCTATATAGATTTACCTTTTAAGAGGAGGAAT,0.191
21,CGACATGTCCCGCTTCTTTCATTAATCCGTTAGGAACTGTTTTGCTATATATATTTACCTTTTAAGAGGAGGAAT,0.367
22,CGACATGTCCCGCTTCTTTCATTAATCCGTTAGGAACTGTTTTTCTATATACATTTACCTTTTAAGAGGAGGAAT,0.453

row,Sequence,cleaved RNA product abundance
1,CGACATGTCCCGCTTCTTTCATTAATCCGTTAGGAACTTTTTTGCTATATACATTTACCTTTTAAGAGGAGGAAT,0.409
2,CGACATGTCCCGCTTCTTTCATTAATCCGTTAGTAAATGTTTTGCTATATACATTTACCTTTTAAGAGGAGGAAT,0.205
3,CGACATGTCCCGCTTCTTTCATTAATCCGTTAGTAACTGTCTTGCTATATACATTTACCTTTTAAGAGGAGGAAT,0.231
4,CGACATGTCCCGCTTCTTTCATTAATCCGTTAGTAACTGTTGTGCTATATACATTTACCTTTTAAGAGGAGGAAT,0.358
5,CGACATGTCCCGCTTCTTTCATTAATCCGTTAGTAACTGTTTAGCTATATACATTTACCTTTTAAGAGGAGGAAT,0.463
6,CGACATGTCCCGCTTCTTTCATTAATCCGTTAGTAACTGTTTTACTATATACATTTACCTTTTAAGAGGAGGAAT,1.04
7,CGACATGTCCCGCTTCTTTCATTAATCCGTTAGTAACTGTTTTCCTATATACATTTACCTTTTAAGAGGAGGAAT,0.44
8,CGACATGTCCCGCTTCTTTCATTAATCCGTTAGTAACTGTTTTGATATATACATTTACCTTTTAAGAGGAGGAAT,0.66
9,CGACATGTCCCGCTTCTTTCATTAATCCGTTAGTAACTGTTTTGCAATATACATTTACCTTTTAAGAGGAGGAAT,0.316
10,CGACATGTCCCGCTTCTTTCATTAATCCGTTAGTAACTGTTTTGCGATATACATTTACCTTTTAAGAGGAGGAAT,0.29
11,CGACATGTCCCGCTTCTTTCATTAATCCGTTAGTAACTGTTTTGCTAAATACATTTACCTTTTAAGAGGAGGAAT,0.496
12,CGACATGTCCCGCTTCTTTCATTAATCCGTTAGTAACTGTTTTGCTACATACATTTACCTTTTAAGAGGAGGAAT,0.318
13,CGACATGTCCCGCTTCTTTCATTAATCCGTTAGTAACTGTTTTGCTATAAACATTTACCTTTTAAGAGGAGGAAT,0.389
14,CGACATGTCCCGCTTCTTTCATTAATCCGTTAGTAACTGTTTTGCTATAGACATTTACCTTTTAAGAGGAGGAAT,0.536
15,CGACATGTCCCGCTTCTTTCATTAATCCGTTAGTAACTGTTTTGCTATATACACTTACCTTTTAAGAGGAGGAAT,0.527
16,CGACATGTCCCGCTTCTTTCATTAATCCGTTAGTAACTGTTTTGCTATATACATATACCTTTTAAGAGGAGGAAT,0.305
17,CGACATGTCCCGCTTCTTTCATTAATCCGTTAGTAACTGTTTTGCTATATACATTTACATTTTAAGAGGAGGAAT,0.433
18,CGACATGTCCCGCTTCTTTCATTAATCCGTTAGTAACTGTTTTGCTATATACATTTACCATTTAAGAGGAGGAAT,0.33
19,CGACATGTCCCGCTTCTTTCATTAATCCGTTAGTAACTGTTTTGCTATATACATTTACCTTTTAAGAGGAGGAAT,0.379
20,CGACATGTCCCGCTTCTTTCATTAATCCGTTAGTAACTGTTTTGCTATATACATTTACGTTTTAAGAGGAGGAAT,0.581
21,CGACATGTCCCGCTTCTTTCATTAATCCGTTAGTAACTGTTTTGCTATATACATTTACTTTTTAAGAGGAGGAAT,0.36
22,CGACATGTCCCGCTTCTTTCATTAATCCGTTAGTAACTGTTTTTCTATATACATTTACCTTTTAAGAGGAGGAAT,0.688

row,Sequence,cleaved RNA product abundance
1,CGACATGTCCCGCTTCTTTCATTAATCCGTTAGTAACTTTTTTGCTATATACATTTACCTTTTAAGAGGAGGAAT,0.636
2,CGACATGTCCCGCTTCTTTCATTAATCCGTTAGTAAGTGTTTTGCTATATACATTTACCTTTTAAGAGGAGGAAT,0.265
3,CGACATGTCCCGCTTCTTTCATTAATCCGTTAGTAATTGTTTTGCTATATACATTTACCTTTTAAGAGGAGGAAT,0.362
4,CGACATGTCCCGCTTCTTTCATTAATCCGTTAGTATCTGTTTTACTATATACATTTACCTTTTAAGAGGAGGAAT,0.917
5,CGACATGTCCCGCTTCTTTCATTAATCCGTTAGTATCTGTTTTGCTATATACATTTACCTTTTAAGAGGAGGAAT,0.422
6,CGACATGTCCCGCTTCTTTCATTAATCCGTTAGTTACTGTTTTGCTATATACATTTACCTTTTAAGAGGAGGAAT,0.365
7,CGACATGTCCCGCTTCTTTCATTAATCCGTTATAAACTGTTTTGCTATATACATTTACCTTTTAAGAGGAGGAAT,0.276
8,CGACATGTCCCGCTTCTTTCATTAATCCGTTATCAAATGTTATGTTATATACATTTACCTTTTAAGAGGAGGAAT,0.413
9,CGACATGTCCCGCTTCTTTCATTAATCCGTTATCAAATGTTTTGCTATATACATTTACCTTTTAAGAGGAGGAAT,0.283
10,CGACATGTCCCGCTTCTTTCATTAATCCGTTATCAACAGTTTTGCTATATACATTTACCTTTTAAGAGGAGGAAT,0.296
11,CGACATGTCCCGCTTCTTTCATTAATCCGTTATCAACTATTTTGCTATATACATTTACCTTTTAAGAGGAGGAAT,0.276
12,CGACATGTCCCGCTTCTTTCATTAATCCGTTATCAACTCTTTTGCTATATACATTTACCTTTTAAGAGGAGGAAT,0.252
13,CGACATGTCCCGCTTCTTTCATTAATCCGTTATCAACTGATTTGCTATATACATTTACCTTTTAAGAGGAGGAAT,0.286
14,CGACATGTCCCGCTTCTTTCATTAATCCGTTATCAACTGCTTTGCTATATACATTTACCTTTTAAGAGGAGGAAT,0.114
15,CGACATGTCCCGCTTCTTTCATTAATCCGTTATCAACTGGTTTGCTATATACATTTACCTTTTAAGAGGAGGAAT,0.204
16,CGACATGTCCCGCTTCTTTCATTAATCCGTTATCAACTGTATTGCTATATACATTTACCTTTTAAGAGGAGGAAT,0.306
17,CGACATGTCCCGCTTCTTTCATTAATCCGTTATCAACTGTGTTGCTATATACATTTACCTTTTAAGAGGAGGAAT,0.27
18,CGACATGTCCCGCTTCTTTCATTAATCCGTTATCAACTGTTATGCTATATACATTTACCTTTTAAGAGGAGGAAT,0.24
19,CGACATGTCCCGCTTCTTTCATTAATCCGTTATCAACTGTTCTGCTATATACATTTACCTTTTAAGAGGAGGAAT,0.213
20,CGACATGTCCCGCTTCTTTCATTAATCCGTTATCAACTGTTTAGCTATATACATTTACCTTTTAAGAGGAGGAAT,0.243
21,CGACATGTCCCGCTTCTTTCATTAATCCGTTATCAACTGTTTCGCTATATACATTTACCTTTTAAGAGGAGGAAT,0.192
22,CGACATGTCCCGCTTCTTTCATTAATCCGTTATCAACTGTTTGGCTATATACATTTACCTTTTAAGAGGAGGAAT,0.231
